Residue numbers refer to the chain shown, from its start. Names and notes keep the numbering of the source.
B1: humanized anti-IL-36R antibody 900527 (antibody, V domains shown)
VH: QVQLVQSGAEVKKPGASVKVSCKASGYTFTSSWMHWAKQAPGQGLEWIGEIHPNSAKTNYNQKFQGRVTMTRDTSISTAYMELSRLRSDDTAVYYCARVDYGKPWFAYWGQGTLVTVSS
VL: QIVLTQSPGTLSLSPGERATLSCRASSSVSSSYLHWYQQKPGQAPRLWIYSTSSRATGIPDRFSGSGSGTDFTLTISRLEPEDFATYYCQQFQSSPLTFGQGTKLEIK
notes: IgG1 (human IgG1 L234A/L235A, human kappa); also called HB0034
B2: humanized anti-IL-36R antibody 900513 (antibody, V domains shown)
VH: B1 VH
VL: B1 VL with Q1E, R24S, S54N
notes: IgG1; built from the chimeric expression plasmids (human IgG1 L234A/L235A, human kappa)
B3: humanized anti-IL-36R antibody 900534 (antibody, V domains shown)
VH: B1 VH
VL: B1 VL with W48L
notes: IgG1 (human IgG1 L234A/L235A, human kappa)
B4: anti-IL-36R chimeric antibody 900497 (antibody, V domains shown)
VH: QVQLQQTGSVLVRPGTSVKLSCKASGYTFTSSWMHWAKQRPGQGLEWIGEIHPNSAKTNYNEKFKGKATLTVDTFSSTAYVDLSSLASEDSAVYYCARVDYGKPWFAYWGQGTLVTVSA
VL: QIVLTQSPTIMSASPGERVTMTCSASSSVSSSYLHWYQQKPGSSPKLWIYSTSNLASGVPARFSGSGSGTSYSLTINSMEAEDAATYYCQQFQSSPLTFGAGTKLGLK
notes: Human-mouse chimera: human IgG1 heavy-chain constant region with L234A and L235A (Eu numbering), human kappa constant region

Columns and labels:
human IL-36R [1] = target: T1, human IL-36R (human, UniProt Q9HB29 20-575); experiment: cell-based or functional assay
T1 sequence (looked up): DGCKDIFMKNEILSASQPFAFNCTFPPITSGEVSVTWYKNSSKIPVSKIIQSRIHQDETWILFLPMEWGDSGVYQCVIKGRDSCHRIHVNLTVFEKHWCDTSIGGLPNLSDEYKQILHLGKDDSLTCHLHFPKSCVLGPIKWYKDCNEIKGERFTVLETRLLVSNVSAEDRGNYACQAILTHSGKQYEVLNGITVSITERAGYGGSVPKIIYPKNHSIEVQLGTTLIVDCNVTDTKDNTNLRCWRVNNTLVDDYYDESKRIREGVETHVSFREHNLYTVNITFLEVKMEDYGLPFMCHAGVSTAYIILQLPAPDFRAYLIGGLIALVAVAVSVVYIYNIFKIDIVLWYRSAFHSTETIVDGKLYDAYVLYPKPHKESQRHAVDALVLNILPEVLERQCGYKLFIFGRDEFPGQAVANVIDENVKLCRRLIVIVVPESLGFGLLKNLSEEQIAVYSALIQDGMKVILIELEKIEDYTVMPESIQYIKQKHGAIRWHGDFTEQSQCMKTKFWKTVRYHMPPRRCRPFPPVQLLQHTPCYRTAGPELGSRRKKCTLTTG

human IL-36R [2] = target: T1, human IL-36R; experiment: cell-based or functional assay; remark: listed apart in the source
human IL-36R [3] = target: T1, human IL-36R; experiment: cell-based or functional assay; remark: listed apart in the source
human IL-36R [4] = target: T1, human IL-36R; experiment: cell-based or functional assay; remark: listed apart in the source
human IL-36R [5] = target: T1, human IL-36R; experiment: cell-based or functional assay; remark: listed apart in the source
human IL-36R [6] = target: T1, human IL-36R; experiment: flow cytometry on CHO-K1 cells expressing human IL-36R
monkey IL-36R = target: T2, monkey IL-36R (monkey); experiment: flow cytometry on CHO-K1 cells expressing monkey IL-36R
T2 construct: whole, on cells

[7] = target: T3, His-tagged human IL-1 Rrp2/IL-1 R6 protein (human, UniProt Q9HB29 20-335); experiment: SPR (Biacore 8K), His-tagged antigen captured by anti-His on CM5, antibody as analyte, 1:1 model
T3 construct: Bought reagent; also called Human IL-1 Rrp2/IL-1 R6 Protein, His Tag; ACRO Biosystems IL2-H52H6; not shown: His tag
T3 sequence (looked up): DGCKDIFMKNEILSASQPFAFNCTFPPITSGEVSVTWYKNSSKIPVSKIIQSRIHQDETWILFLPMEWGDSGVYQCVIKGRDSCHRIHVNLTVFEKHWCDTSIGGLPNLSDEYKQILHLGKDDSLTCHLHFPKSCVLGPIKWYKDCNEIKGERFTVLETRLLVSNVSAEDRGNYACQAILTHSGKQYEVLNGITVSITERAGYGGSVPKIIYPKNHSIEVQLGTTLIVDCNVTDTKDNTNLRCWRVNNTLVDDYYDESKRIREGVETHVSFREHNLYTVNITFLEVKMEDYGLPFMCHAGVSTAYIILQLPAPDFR
Description: Series S Sensor Chip CM5 was equilibrated for 20-30 min at room temperature, and then fitted in the instrument. Following the instruction manual for His Capture Kit, an anti-His antibody was immobilized onto the Series S Sensor Chip CM5. An HBS-EP+(10×) solution was diluted 10-fold in ultrapure water as the running buffer. An antigen (His-tagged human IL-1 Rrp2/IL-1 R6 protein) was diluted to 1 μg/ml and 10 μL/min using the running buffer, and loaded during 15 sec to capture around 50 RU of antigen. An antibody sample were diluted to 30 nM, 15 nM, 7.5 nM, 3.75 nM, 1.875 nM, 0.9375 nM, and 0.46875 nM using an equilibration buffer; the running buffer was taken as zero concentration; at 30 μL/min, binding and dissociation were allowed to occur for 120 s and 900 s, respectively; and the chip was regenerated with the glycine solution at pH 1.5. The sample was analyzed by a capture-based single-cycle kinetics program; the corresponding analysis program was selected to analyze the data, and it was confirmed that there was no obvious reference binding; and the Kinetics 1:1 binding model was selected for fitting analysis to acquire the kinetic parameters of the sample.

Binder	IC50, GM-CSF release under IL-36 α stimulation (NCI/ADR-RES cells) (human IL-36R [1]) [µg/mL]	IC50, GM-CSF release under IL-36 β stimulation (NCI/ADR-RES cells) (human IL-36R [1]) [µg/mL]	IC50, GM-CSF release under IL-36 γ stimulation (NCI/ADR-RES cells) (human IL-36R [1]) [µg/mL]	IC50, IL-6 release under IL-36 α stimulation (NCI/ADR-RES cells) (human IL-36R [1]) [µg/mL]	IC50, IL-6 release under IL-36 β stimulation (NCI/ADR-RES cells) (human IL-36R [1]) [µg/mL]	IC50, IL-6 release under IL-36 γ stimulation (NCI/ADR-RES cells) (human IL-36R [1]) [µg/mL]	IC50, IL-8 release under IL-36 α stimulation (NCI/ADR-RES cells) (human IL-36R [1]) [µg/mL]	IC50, IL-8 release under IL-36 β stimulation (NCI/ADR-RES cells) (human IL-36R [1]) [µg/mL]	IC50, IL-8 release under IL-36 γ stimulation (NCI/ADR-RES cells) (human IL-36R [1]) [µg/mL]	IC50, pNF-κB under IL-36 β stimulation (NCI/ADR-RES cells) (human IL-36R [1]) [ng/ml]	HuIL-6 detected in NCI/ADR-RES under IL-36β stimulation IC50 (human IL-36R [2]) [µg/mL]	HuIL-6 detected in HIF under IL-36α stimulation IC50 (human IL-36R [3]) [µg/mL]	HuIL-6 detected in HIF under IL-36β stimulation IC50 (human IL-36R [4]) [µg/mL]	pNFκB detected in HIF under IL-36β stimulation IC50 (human IL-36R [5]) [µg/mL]	EC50 (human IL-36R [6]) [µg/mL]	EC50 (monkey IL-36R) [µg/mL]	Kd [7] [nM]	koff [7] [s⁻¹]	kon [7] [M⁻¹ s⁻¹]
B1	0.022	0.0174	0.0198	0.015	0.0139	0.0162	0.0315	0.0223	0.0198	71.4	0.00887	0.0479	0.0546	0.105	0.062	0.0595	0.0452	4.37e-05	967000
B2	0.0206	0.0184	0.0179	0.0124	0.0223	0.0121	0.0398	0.0221	0.018	105							0.0148	1.34e-05	904000
B3	0.0202	0.0186	0.021	0.0216	0.0168	0.0176	0.0304	0.022	0.018	64.9							0.0579	5.1e-05	881000
B4	0.0328	0.0224	0.0288	0.0332	0.0204	0.0198	0.0439	0.0292	0.0284	115		0.146	0.0837	0.1			0.0254	1.68e-05	660000

Reference: patent publication US20230399409A1 (SHANGHAI HUAOTA BIOPHARMACEUTICAL, published 2023)
